B1: 1SD*/2DD dsDNA 29 bp (dsDNA)
DNA 1: GCGCATATGGAGCGTTTCCAAAGTCTTAG
DNA 2: CTAAGACTTTGGAAACGCTCCATATGCGC

Assays:
Test in all cases: EMSA
BLM HRDC domain WT [1] = target: T1, BLM HRDC domain WT (Homo sapiens, UniProt P54132 1210-1294)
BLM HRDC Y1237A = BLM HRDC Y1237A (Homo sapiens, UniProt P54132 1210-1294, Y1237A)
BLM HRDC T1243A = BLM HRDC T1243A (Homo sapiens, UniProt P54132 1210-1294, T1243A)
BLM HRDC domain WT [2] = target: T1, BLM HRDC domain WT; remark: listed apart in the source

T1 sequence (P54132 1210-1294): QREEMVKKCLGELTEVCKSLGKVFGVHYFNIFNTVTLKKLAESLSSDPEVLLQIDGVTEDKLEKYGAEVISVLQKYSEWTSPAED
Chain of BLM HRDC Y1237A (P54132 1210-1294 Y1237A): as the sequence (P54132 1210-1294) above, with Y28A counted along it
Chain of BLM HRDC T1243A (P54132 1210-1294 T1243A): as the sequence (P54132 1210-1294) above, with T34A counted along it

Binder | Kd (BLM HRDC domain WT [1]) | binding result (BLM HRDC Y1237A) | binding result (BLM HRDC T1243A) | binding result (BLM HRDC domain WT [2])
GCGCATATGGAGCGTTTCCAAAGTCTTAG (ssDNA) [1SD* ssDNA 29 nt] | ~100 µM | binds | binds | –
B1 | – | – | – | no binding

Reference: publication PMC2995041
